Drawing on publication PMC9091064, this text covers stoichiometry N, relative proteolytic activity on the FRET peptide substrate, percent of WT and share of the monomer form for 19 substances.

The term stoichiometry N denotes a count of units in the complex or per binding partner.

The target in assay [1] is SARS-CoV-2 3CLpro E290D (SARS-CoV-2). The assay can be described thus: SEC.
The target in assay [2] is SARS-CoV-2 3CLpro Q299A (SARS-CoV-2). As to the kind of experiment: SEC. For orientation: Size exclusion chromatography separates by hydrodynamic size, large species first.
Assay [3] has as its target SARS-CoV-2 3CLpro S139A (SARS-CoV-2). As to the kind of experiment: SEC.
Assay [4] concerns the target SARS-CoV-2 3CLpro E14S (SARS-CoV-2). As to the kind of experiment: SEC.
For assay [5], the target named is SARS-CoV-2 3CLpro S1A (SARS-CoV-2). As to the kind of experiment: SEC.
In assay [6] the target is SARS-CoV-2 3CLpro Q299E (SARS-CoV-2). The assay can be described thus: SEC.
Assay [7] has as its target SARS-CoV-2 3CLpro S10T (SARS-CoV-2). The assay can be described thus: SEC.
The target in assay [8] is SARS-CoV-2 3CLpro E290A (SARS-CoV-2). The assay can be described thus: SEC.
Assay [9] addresses SARS-CoV-2 3CLpro E14Q (SARS-CoV-2). As to the kind of experiment: SEC.
The target in assay [10] is SARS-CoV-2 3CLpro R4Q (SARS-CoV-2). The assay can be described thus: SEC.
Assay [11] deals with SARS-CoV-2 3CLpro R4A (SARS-CoV-2). The assay can be described thus: SEC.
Assay [12] deals with SARS-CoV-2 3CLpro E290Q (SARS-CoV-2). As to the kind of experiment: SEC.
Assay [13] concerns the target SARS-CoV-2 3CLpro E290Y (SARS-CoV-2). The assay can be described thus: SEC.
Assay [14] concerns the target SARS-CoV-2 3CLpro E14A (SARS-CoV-2). As to the kind of experiment: SEC.
Assay [15] addresses SARS-CoV-2 3CLpro K12A (SARS-CoV-2).
Assay [16] has the same target. The assay can be described thus: SEC.
Assay [17] deals with SARS-CoV-2 3CLpro E14D (SARS-CoV-2). As to the kind of experiment: SEC.
Assay [18] deals with SARS-CoV-2 3CLpro S10A (SARS-CoV-2). As to the kind of experiment: SEC.
Assay [19] concerns the target SARS-CoV-2 3CLpro Q299N (SARS-CoV-2). As to the kind of experiment: SEC.
In assay [20] the target is SARS-CoV-2 3CLpro S10C (SARS-CoV-2). As to the kind of experiment: SEC.

In [1], SARS-CoV-2 3CLpro E290D (enzyme) showed a stoichiometry N of 2. Regarding SARS-CoV-2 3CLpro Q299A (enzyme), in [2], the stoichiometry N worked out at 2. With SARS-CoV-2 3CLpro S139A (enzyme), the stoichiometry N in assay [3] came to 2. Regarding SARS-CoV-2 3CLpro E14S (enzyme), the stoichiometry N in [4] stood at 2. On to SARS-CoV-2 3CLpro S1A (enzyme), for which, in [5], the stoichiometry N stood at 2. Turning to SARS-CoV-2 3CLpro Q299E (enzyme), in assay [6], the stoichiometry N was 2.

Substance SARS-CoV-2 3CLpro S10T (enzyme) displayed a stoichiometry N in assay [7] of 2. The substance SARS-CoV-2 3CLpro E290A (enzyme) came in with a stoichiometry N in assay [8] of 2. SARS-CoV-2 3CLpro E14Q (enzyme): the stoichiometry N in assay [9] came out at 2.

Substance SARS-CoV-2 3CLpro R4Q (enzyme) registered a stoichiometry N in [10] of 2. Substance SARS-CoV-2 3CLpro R4A (enzyme) displayed a stoichiometry N in assay [11] of 2. The substance SARS-CoV-2 3CLpro E290Q (enzyme) returned a stoichiometry N in assay [12] of 2. The substance SARS-CoV-2 3CLpro E290Y (enzyme) registered a stoichiometry N in [13] of 2. Consider SARS-CoV-2 3CLpro E14A (enzyme), for which the stoichiometry N in assay [14] came to 2. SARS-CoV-2 3CLpro K12A (enzyme) displayed a relative proteolytic activity on the FRET peptide substrate, percent of WT in assay [15] of 60%. In assay [16], this substance came in with a share of the monomer form of 60% and a stoichiometry N of 2. In assay [17], SARS-CoV-2 3CLpro E14D (enzyme) displayed a stoichiometry N of 2. Turning to SARS-CoV-2 3CLpro S10A (enzyme), the stoichiometry N in assay [18] was 2. Consider SARS-CoV-2 3CLpro Q299N (enzyme), for which, in [19], the stoichiometry N was determined as 2. SARS-CoV-2 3CLpro S10C (enzyme) returned a stoichiometry N in [20] of 2.
